Data published in the supplement of paper PMC9732359.
± gives the uncertainty stated by the source.

Assay: protein stability index of a GFP-peptide fusion (yeast GPS) (PSI 1-4); higher = more stable; sorted into four equal gates, so the index is relative within each strain
Method in brief: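 The protein stability index combines read frequencies across sorting gates, each weighted by its gate number and then summed. To obtain those frequencies, a pooled yeast library of GFP fusions to tiled 17-residue yeast protein peptides, on a plasmid also expressing Cherry, was grown to mid-log phase in leucine-free medium. The cells were sorted into four equal gates by GFP/Cherry ratio before plasmid amplification by PCR and Illumina sequencing.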

Row | Sequence | protein stability index (doa10∆) | protein stability index (pdr5∆) | protein stability index (san1∆) | protein stability index (ubr1∆)
1 | DEEIIQLHFSLLDEEAE [RPO21] | 2.86 ± 0.078 | 3.01 ± 0.09 | 2.89 ± 0.083 | 2.83 ± 0.23
2 | DILSKLYLLLARVFEIW [SNF11] | 2.15 ± 0.044 | 2.36 ± 0.053 | 2.19 ± 0.07 | 2.39 ± 0.041
3 | NIAFDAHMSIGCLHKGK [YML031W/NDC1] | 3.07 ± 0.15 | 2.7 ± 0.089 | 1.55 ± 0.15 | 2.27 ± 0.086
4 | ACDPSEIEPILMEIHNI [RGR1] | 2.82 ± 0.13 | 2.74 ± 0.1 | 3.16 ± 0.08 | 2.92 ± 0.067
5 | DLPDTEGLELLGWIHTQ [PRP8] | 2.75 ± 0.093 | 2.79 ± 0.085 | 3.22 ± 0.051 | 3.27 ± 0.045
6 | NNKFANKIIPNVGLCIT [RPC25] | 2.71 ± 0.07 | 3.04 ± 0.082 | 2.94 ± 0.054 | 3 ± 0.081
7 | GLSVTQKVFVRSRNGGA [DIS3] | 1.46 ± 0.071 | 1.32 ± 0.065 | 1.4 ± 0.15 | 1.62 ± 0.063
8 | KPLKKGSADIGASVISL [SIR4] | 3.09 ± 0.068 | 3.14 ± 0.055 | 3.05 ± 0.038 | 3.06 ± 0.04
9 | DDSLNRLAQNDGLLKNV [RPS21A] | 2.77 ± 0.15 | 3.04 ± 0.12 | 3.16 ± 0.13 | 3.38 ± 0.18
10 | TVEGISKLLREHGYQSR [RPB2] | 3.4 ± 0.21 | 2.97 ± 0.21 |  | 2.64 ± 0.093
11 | ENSIGYNNRKCWPKDSR [PRP8] | 3.08 ± 0.16 | 2.95 ± 0.18 |  | 2.87 ± 0.29
12 | QRRTNNSGVGSAKGPEI [MED6] |  |  | 3.23 ± 0.19 | 
13 | NFLDNCLFENDLQRLKP [ITC1] | 2.61 ± 0.051 | 3.07 ± 0.063 | 2.94 ± 0.048 | 3.06 ± 0.034
14 | ETEAEEDHMLKKIENTM [RPO21] |  | 3.37 ± 0.18 |  | 3.46 ± 0.15
15 | PLAAGNFVSEKGDLRRG [RPC53] |  | 3.4 ± 0.19 | 3.31 ± 0.17 | 3.24 ± 0.11
16 | VTRGISVLKDSDDKTRQ [PRE1] | 3.16 ± 0.078 | 3.28 ± 0.066 | 3.18 ± 0.056 | 3.17 ± 0.059
17 | ETFISSMTATADVLAMA [RIP1] | 1.93 ± 0.11 | 2.48 ± 0.097 | 3.13 ± 0.077 | 1.44 ± 0.054
18 | CRDSDDHKRFIVFHNEF [DIS3] | 3.02 ± 0.1 | 3.26 ± 0.084 | 2.33 ± 0.2 | 3.23 ± 0.065
19 | MPYTINELLEMVGLASG [BRR2] | 2.56 ± 0.049 | 2.31 ± 0.057 | 2.58 ± 0.052 | 2.52 ± 0.031
20 | EAVELVIGLDSEHDKKR [YML103C/NUP188] | 2.74 ± 0.2 | 3.55 ± 0.15 | 3.16 ± 0.18 | 3.37 ± 0.047
21 | LSHIVYFLVLSPYGNLQ [RPN5] | 1.53 ± 0.054 | 1.33 ± 0.055 | 1.25 ± 0.087 | 1.12 ± 0.034
22 | DGFDPRGNIKVMFATNR [RPT1] | 3.25 ± 0.17 | 3.48 ± 0.16 | 3.26 ± 0.091 | 3.24 ± 0.14
23 | VLSIPPANHLQSDFCLS [YGL100W/SEH1] | 2.94 ± 0.11 | 2.44 ± 0.1 | 2.52 ± 0.11 | 2.59 ± 0.044
24 | SSKAATPDTKNFFHAKK [SNF12] | 3.12 ± 0.058 | 2.96 ± 0.051 | 2.99 ± 0.048 | 2.93 ± 0.047
25 | SCQIAQPYEDRPFEGLF [RRP45] | 3.33 ± 0.24 | 3.26 ± 0.095 | 3.15 ± 0.086 | 
26 | LVALSNEPAARLGSEAD [FAS2] | 3.44 ± 0.082 | 3.37 ± 0.073 | 3.45 ± 0.054 | 3.32 ± 0.092
27 | LYDLRASYAKIEIKISD [SNU114] | 2.34 ± 0.11 | 2.72 ± 0.084 | 2.22 ± 0.12 | 2.13 ± 0.17

Row | Sequence | protein stability index (doa10∆) | protein stability index (pdr5∆) | protein stability index (san1∆) | protein stability index (ubr1∆)
28 | IGQAVQPKRNLSRYVKW [RPL8A] | 2.69 ± 0.065 | 2.97 ± 0.043 | 2.72 ± 0.047 | 2.66 ± 0.047
29 | LGGEINDNEDDDEEYDY [BRR2] | 3.5 ± 0.17 | 3.34 ± 0.081 | 3.28 ± 0.065 | 3.43 ± 0.1
30 | DPKFRRNHKHALHGTAK [RPL29] | 2.34 ± 0.025 | 2.602 ± 0.022 | 2.478 ± 0.024 | 2.636 ± 0.019
31 | WTVLFRKHHKKGITEEV [RPL24A] | 3.08 ± 0.12 | 2.1 ± 0.13 | 1.82 ± 0.15 | 2.64 ± 0.079
32 | RVFNAKDTTGPKAISNF [YCS4] | 2.9 ± 0.1 | 2.82 ± 0.13 | 3.18 ± 0.11 | 2.9 ± 0.1
33 | SDINQNDDSSSMNATMR [YDL088C/ASM4] | 2.88 ± 0.09 | 2.98 ± 0.075 | 2.76 ± 0.073 | 2.69 ± 0.054
34 | SDEEENNNNKSINKNNK [SSN2] | 2.94 ± 0.07 | 3.02 ± 0.079 | 2.72 ± 0.065 | 3.07 ± 0.08
35 | PRVSNQSNEDTFLPSYM [RRI2] | 3.07 ± 0.087 | 3.05 ± 0.09 | 3.14 ± 0.089 | 3.44 ± 0.067
36 | SDLKGKLSSAENANADL [YIL149C/MLP2] | 3.37 ± 0.15 | 3.35 ± 0.1 | 3.17 ± 0.12 | 3.17 ± 0.071
37 | QQLAYDLSISALLGDKI [RPN9] | 2.4 ± 0.052 | 2.67 ± 0.058 | 2.47 ± 0.075 | 2.15 ± 0.064
38 | GGFTAYGGADYGEATSP [RPO21] | 1.79 ± 0.093 | 1.9 ± 0.069 | 1.98 ± 0.099 | 2.01 ± 0.068
39 | SVQLPDMAKLKKMMNTS [SWI3] | 2.14 ± 0.082 | 1.82 ± 0.092 | 1.91 ± 0.11 | 1.94 ± 0.082
40 | SDAMSIDEEDKDSESFS [YCG1] | 2.85 ± 0.15 | 1.95 ± 0.1 | 2.61 ± 0.13 | 2.4 ± 0.069
41 | ELTQVPSARQKYMVKGG [UBP6] | 2.6 ± 0.13 | 2.83 ± 0.095 | 2.95 ± 0.1 | 2.96 ± 0.11
42 | ESTETGYVIKVFNNGIV [DIS3] | 2.34 ± 0.19 | 3.08 ± 0.21 | 2.13 ± 0.14 | 1.21 ± 0.24
43 | ILNSYGVLKPDITFFGE [SIR2] | 3.27 ± 0.069 | 3.13 ± 0.072 | 3.21 ± 0.049 | 3.31 ± 0.062
44 | MSEQQWREQLRNRDIAL [ROX3] | 2.98 ± 0.071 | 2.85 ± 0.056 | 3 ± 0.054 | 2.42 ± 0.048
45 | PNKVKTEDIRIRAQNFK [RRP6] | 2.75 ± 0.061 | 2.88 ± 0.082 | 2.56 ± 0.077 | 2.84 ± 0.039
46 | ARDLLDDLEKTLDKKDS [RPN9] | 3.21 ± 0.17 | 2.75 ± 0.11 | 3.15 ± 0.12 | 2.56 ± 0.1
47 | HVLYKESKGNAFKHKRA [RPL19A] | 2.97 ± 0.079 | 2.49 ± 0.12 | 2.59 ± 0.08 | 2.46 ± 0.044
48 | LIASHYGVSFFTIQSFV [BRR2] | 1.92 ± 0.043 | 1.89 ± 0.039 | 1.48 ± 0.063 | 1.81 ± 0.051
49 | YTPEESAWIWPMDEETK [RPC25] | 2.34 ± 0.068 | 2.62 ± 0.074 | 2.54 ± 0.086 | 2.65 ± 0.098
50 | ERSYPSEFANQNQGGAQ [ROX3] | 2.98 ± 0.083 | 3.07 ± 0.092 | 2.96 ± 0.066 | 3.17 ± 0.061
51 | YARADTHFLLNIYDQLR [RRP6] | 2.54 ± 0.045 | 2.34 ± 0.042 | 2.44 ± 0.05 | 2.58 ± 0.027
52 | GQLGEMAKCLDNPDQGI [YCS4] | 3.13 ± 0.14 | 3.49 ± 0.12 | 3.39 ± 0.065 | 3.29 ± 0.15
53 | EETDDEDKQNIEINEDN [RRI2] | 3.52 ± 0.08 | 3.25 ± 0.07 | 3.26 ± 0.045 | 3.25 ± 0.038
